Laboratory results as given in patent US20210061891A1 (DUKE UNIVERSITY, published 2021).
Ends that are not written are not given here.

T1: residue mutated to A: P (also: biotinylated, attachment site not given here)
T1 construct: position from the legend (CFH1114-1121)
T1 peptide: GPPPAIDNGDITSFP

T2: residue mutated to A: I (also: biotinylated, attachment site not given here)
T2 construct: position from the legend (CFH1114-1121)
T2 peptide: GPPPPADNGDITSFP

T3: residue mutated to A: D (3rd column) (also: biotinylated, attachment site not given here)
T3 construct: position from the legend (CFH1114-1121)
T3 peptide: GPPPPIANGDITSFP

T4: residue mutated to A: G (also: biotinylated, attachment site not given here)
T4 construct: position from the legend (CFH1114-1121)
T4 peptide: GPPPPIDNADITSFP

T5: residue mutated to A: D (6th column) (also: biotinylated, attachment site not given here)
T5 construct: position from the legend (CFH1114-1121)
T5 peptide: GPPPPIDNGAITSFP

T6: residue mutated to A: T (also: biotinylated, attachment site not given here)
T6 construct: position from the legend (CFH1114-1121)
T6 peptide: GPPPPIDNGDIASFP

T7: residue mutated to A: N (also: biotinylated, attachment site not given here)
T7 construct: position from the legend (CFH1114-1121)
T7 peptide: GPPPPIDAGDITSFP


Tests used:
[1] = target: T1, residue mutated to A: P; experiment: ELISA on streptavidin-immobilized biotinylated 15mer peptides; area under the signal vs antibody concentration curve;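 further: antibody binding to each alanine-substituted peptide expressed relative to binding to the natural peptide, using curve area determined separately for every peptide-antibody pair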
[2] = target: T2, residue mutated to A: I; experiment: as above
[3] = target: T3, residue mutated to A: D; experiment: as above
[4] = target: T4, residue mutated to A: G; experiment: as above
[5] = target: T5, residue mutated to A: D; experiment: as above
[6] = target: T6, residue mutated to A: T; experiment: as above
[7] = target: T8, reduced Complement Factor H (CFH treated with TCEP) (human, UniProt P08603 19-1231, disulfide bonds reduced with TCEP); experiment: immunoblot (Surf-Blot), CFH treated with TCEP (reduced) before electrophoresis; anti-human IgG-HRP
T8 construct: also called reduced CFH; conformationally distinct form of CFH
T8 sequence (P08603 19-1231 limits assumed): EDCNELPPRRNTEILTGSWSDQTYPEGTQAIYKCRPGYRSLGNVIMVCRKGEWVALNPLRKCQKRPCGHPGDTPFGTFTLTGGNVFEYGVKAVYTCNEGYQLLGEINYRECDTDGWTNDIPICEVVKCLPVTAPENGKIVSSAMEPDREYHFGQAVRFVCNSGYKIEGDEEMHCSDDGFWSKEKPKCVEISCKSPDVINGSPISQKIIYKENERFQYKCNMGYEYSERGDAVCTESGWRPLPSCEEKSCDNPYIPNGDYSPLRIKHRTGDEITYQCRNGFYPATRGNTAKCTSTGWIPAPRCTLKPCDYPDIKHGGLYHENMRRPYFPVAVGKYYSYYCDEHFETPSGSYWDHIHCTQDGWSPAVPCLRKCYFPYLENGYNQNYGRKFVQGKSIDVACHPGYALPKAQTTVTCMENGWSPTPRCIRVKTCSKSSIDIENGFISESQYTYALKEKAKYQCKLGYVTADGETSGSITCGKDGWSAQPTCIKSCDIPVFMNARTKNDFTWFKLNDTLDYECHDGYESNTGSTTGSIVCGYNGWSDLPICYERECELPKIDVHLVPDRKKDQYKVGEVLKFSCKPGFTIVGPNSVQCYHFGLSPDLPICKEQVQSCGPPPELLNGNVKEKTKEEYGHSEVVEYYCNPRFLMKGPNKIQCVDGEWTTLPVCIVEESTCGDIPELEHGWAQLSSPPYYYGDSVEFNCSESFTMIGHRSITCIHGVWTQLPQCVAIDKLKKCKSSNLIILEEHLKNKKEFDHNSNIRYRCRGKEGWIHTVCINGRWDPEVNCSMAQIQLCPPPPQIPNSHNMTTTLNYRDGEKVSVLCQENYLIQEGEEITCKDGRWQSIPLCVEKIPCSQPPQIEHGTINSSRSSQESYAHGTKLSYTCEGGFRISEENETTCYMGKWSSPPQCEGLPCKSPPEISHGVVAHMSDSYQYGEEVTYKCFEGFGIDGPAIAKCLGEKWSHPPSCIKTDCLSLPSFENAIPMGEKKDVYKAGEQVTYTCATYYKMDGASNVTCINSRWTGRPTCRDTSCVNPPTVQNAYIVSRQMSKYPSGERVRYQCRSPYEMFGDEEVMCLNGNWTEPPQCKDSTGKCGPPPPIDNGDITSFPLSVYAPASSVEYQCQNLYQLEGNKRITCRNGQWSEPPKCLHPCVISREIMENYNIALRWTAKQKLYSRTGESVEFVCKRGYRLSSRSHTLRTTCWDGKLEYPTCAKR

[8] = target: T9, native Complement Factor H (CFH) (human, UniProt P08603 19-1231); experiment: immunoblot (Surf-Blot), CFH treated with Tris-HCl (oxidized) before electrophoresis; anti-human IgG-HRP
T9 construct: Native, non-reduced CFH; also called native CFH; full-length native CFH
T9 sequence (P08603 19-1231 limits assumed): as above

[9] = target: T7, residue mutated to A: N; experiment: ELISA on streptavidin-immobilized biotinylated 15mer peptides; area under the signal vs antibody concentration curve;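 further: antibody binding to each alanine-substituted peptide expressed relative to binding to the natural peptide, using curve area determined separately for every peptide-antibody pair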

percent of binding to the natural peptide (AUC) [1] [%] | percent of binding to the natural peptide (AUC) [2] [%] | percent of binding to the natural peptide (AUC) [3] [%] | percent of binding to the natural peptide (AUC) [4] [%] | percent of binding to the natural peptide (AUC) [5] [%] | percent of binding to the natural peptide (AUC) [6] [%] | binding result [7] | binding result [8] | percent of binding to the natural peptide (AUC) [9] [%] | Binder
73 | 73 | 102 | 100 | 101 | 54 | – | – | – | CFH mAb7968 (antibody, V domains shown, also called CBAb1) VH: LVESGGGVVQPGRSLRLSCAASGFTFSRYGMHWVRQAPGKGLEWVAVMSYDGSTKYYADSVKGRFAISRDNPKNTLFLQMNSLRPDDTAVYYCAKGGAAAAVMDVWGKGTTVTVSS VL: MTQSPDSLTVSLGERATISCKSSQRLLYSSNNKNYLAWYQQKPGQPPKLLMYWASTRESGVPDRFSGSGSGTDFSLTISSLQAEDVAVYYCQQYYNPPWTFGQGTKVEVK
74 | 76 | 100 | 100 | 102 | 66 | binds | binds | – | Ab7964 (antibody, V domains shown, Recombinant human mAb) VH: LVESGGGVVQPGRSLRLSCAASGVTFSRYGMHWVRQAPGKGLEWVAVISYDEKTKYYADSVKGRFTISRDNSKNTLFLHMNRLRYEDTAVYYCAKGASSGAYFDYWGQGTLVTVSS VL: not shown
61 | 61 | 100 | 99 | 102 | 48 | binds | binds | 30 | Ab7957/293i (antibody, V domains shown, Recombinant human mAb) VH: LVESGGGVVPPGKSLRLSCAASGFTFSLYGIHWVRQAPGKGLEWVAVISYDGNTKYYTDSVKGRFTISRDNAKNTIYLQMNSLRLDDTAVYYCAKGAANSATFDFWGRGTMVTVSS VL: MTQSPDSLTLSLGERATINCRSSRTVLYRSNNKNYLAWYQHKPGQPPKLLMSWASTRETGVPDRFSGSGSGTHFTLTITSLQPEDVAVYYCQQYYSPPWTFGQGTKVEIR
52 | – | 81 | 104 | 103 | – | – | – | – | Ab7955 (antibody, V domains shown, Recombinant human mAb) VH: LVESGGGVVRPGRSLRLSCVASGFTFNAYGMHWVRQGPGKGLEWLAVISYEGKTVYYADSVKDRFTISRDNSRNTVSLHLNNLRGEDTAVYYCAKGSASAAVLQHWGQGTLVSVTS VL: MTQSPGSLAVSLGSRATINCKSSRSLLYRSNNKNYLAWYQQKPGQSPRLLIYWASSRESGVPDRFSGGGSGTSFTLTISSLQAEDVAVYYCQQYFNPPWTFGQGTKVEIK
56 | 52 | 100 | 104 | 105 | 16 | binds | binds | – | Ab7961/293i (antibody, V domains shown, Recombinant human mAb) VH: LVESGGGVVQPGKSLRLSCVASGFTFSSYGMHWVRQAPGKGLEWVAVMSFDGKTKYYADSVKGRFTISRDNPKNTLYLQMNSLRSEDTAVYYCAKGGAAAAVFDSWGQGILLTVSS VL: MTQSPNSLAVSLGGRATINCKTSQSILYRSNNKNYLAWYQHKSGQPPKLLIYWASTRESGVPDRFSGSGSRTDFTLTISGLQAEDVAVYYCQQYYNPPWTFGQGTKVEIK
64 | 61 | 96 | 102 | 98 | – | binds | binds | 29 | Ab7979 (antibody, V domains shown, Recombinant human mAb) VH: LVESGGGVVQPGKSLRLSCVASGFTFSTYGMHWVRQAPGKGLEWVAVMSFDGKTKYYADSVKGRFTISRDNPKNTLYLQMNSLRSEDTAVYYCAKGGAAAAVFDSWGQGILLTVSS VL: MTQSPNSLAVSLGGRATINCKTSQSILYRSNNKNYLAWYQHKPGQPPKLLIYWASTRESRVPDRFSGSGSRTDFTLTISGLQAEDVAVYYCQQYYNPPWTFGQGTKVEIK
53 | 43 | 95 | 99 | 99 | – | binds | binds | – | Ab7960/293i (antibody, V domains shown, Recombinant human mAb) VH: LVESGGGVVQPGKSLRLSCVASGFSFSTYGMHWVRQAPGKGLEWVAVMSFDGKTKYYADSVKGRFTISRDNPKNTLYLQMNSLRSEDTAVYYCAKGGAAAAVFDSWGPGILLTVSS VL: MTQSPNSLAVSLGGRATINCKASQSILYRSNNKNYLAWYQHKAGQPPKLLIYWASTRESGVPERFSGSGSRTDFTLTINGLQAEDVAVYYCQQYYNPPWTFGQGTKVEIK
